T1: OsCAA90866 aa 100-250 (Oryza sativa)
T1 construct: bait, Gal4 DBD fusion; also called PN20311; O. sativa Chilling-Inducible Protein CAA90866
T1 chain: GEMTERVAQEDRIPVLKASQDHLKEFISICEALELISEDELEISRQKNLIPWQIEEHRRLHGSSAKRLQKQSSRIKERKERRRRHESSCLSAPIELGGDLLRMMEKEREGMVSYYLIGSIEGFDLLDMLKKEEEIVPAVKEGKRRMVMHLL

T2: Os018989-4003 aa 90-220 (Oryza sativa)
T2 construct: bait, Gal4 DBD fusion; also called PN21044
T2 chain: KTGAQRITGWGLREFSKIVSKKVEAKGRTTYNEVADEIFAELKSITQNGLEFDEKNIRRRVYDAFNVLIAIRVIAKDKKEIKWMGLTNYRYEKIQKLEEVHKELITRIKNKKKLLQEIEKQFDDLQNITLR

T3: OsCHIB1 aa 10-200 (Oryza sativa)
T3 construct: bait, Gal4 DBD fusion; also called PN19651; O. sativa Chitinase, Class III
T3 chain: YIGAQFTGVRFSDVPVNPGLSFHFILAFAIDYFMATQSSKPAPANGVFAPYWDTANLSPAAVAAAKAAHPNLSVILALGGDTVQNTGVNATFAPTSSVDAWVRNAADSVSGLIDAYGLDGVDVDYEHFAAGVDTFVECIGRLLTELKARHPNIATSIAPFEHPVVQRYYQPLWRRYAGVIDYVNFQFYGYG

T4: OsMADS5 aa 50-160 (Oryza sativa, UniProt A2Y9P0 50-160)
T4 construct: bait, Gal4 DBD fusion; also called PN20770
T4 sequence: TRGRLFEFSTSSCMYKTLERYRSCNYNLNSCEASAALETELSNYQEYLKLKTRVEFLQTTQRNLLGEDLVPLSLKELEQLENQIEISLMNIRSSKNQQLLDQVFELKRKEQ

T5: OsRAP1B aa 30-180 (Oryza sativa, UniProt Q10CQ1 30-180)
T5 construct: bait, Gal4 DBD fusion; also called PN20232
T5 sequence: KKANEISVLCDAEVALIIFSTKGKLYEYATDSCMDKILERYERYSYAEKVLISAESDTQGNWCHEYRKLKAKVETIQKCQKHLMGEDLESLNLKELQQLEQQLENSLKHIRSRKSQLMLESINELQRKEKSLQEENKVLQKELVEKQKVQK

B1: OsORF020300-2233.2 aa 1-206 (other)
chain: MVEVEEVSNKMQAQMRLHPAAAAEEEDADLPLPALFDKASHLHSLASSSSLDQEGIRKGVDLLRRCDEMVSKLGLFSSNETKDDVSTANLKYLLVPYYLGEMTERVAQEDRIPVLKASQDHLKEFISICEALELISEDELELSRQKQPDTMANRRAQKAARFKRQKAAETKLLEIKERKERRRRSLRAAALSAPIEAGEEDAFEDD
notes: prey, AD fusion; also called PN21639
B2: OsCAA90866 aa 1-126 (other)
chain: MVEVEEVSNKMQVQMRLHPAAAAEEEDADLPLPALFDKASHLHSLASSSSLDQEGIRKGVDLLRRCDEMVSKVGLFSSNETKDDISTANLKYLLVPYYLGEMTERVAQEDRIPVLKASQDHLKEFI
notes: prey, AD fusion; also called PN20311
B3: OsPN29883 aa 58-175 (other)
chain: YGQLKAAQPFFLLAGPNVIESEEHVLKMAKHIKGITTKLGLPLVFKSSFDKANRTSSKSFRGPGLEEGLKILEKVKATYDIPVVTDVHESHQCEAAGRVADIIQIPAFFCRQTDLLVA
notes: prey, AD fusion; also called Novel Protein PN29883, Fragment
B4: OsORF020300-2233.2 aa 1-190 (other)
chain: MVEVEEVSNKMQAQMRLHPAAAAEEEDADLPLPALFDKASHLHSLASSSSLDQEGIRKGVDLLRRCDEMVSKLGLFSSNETKDDVSTANLKYLLVPYYLGEMTERVAQEDRIPVLKASQDHLKEFISICEALELISEDELELSRQKQPDTMANRRAQKAARFKRQKAAETKLLEIKERKERRRRSLRAAA
notes: as for B1
B5: OsAAK72891 aa 339-651 (other)
chain: ELDLQEKTEELFKFKREKGLLTLKNDVEFEPLRKKIPQIISRMDQIISKNIKMPSLCMTNDGLDERCISAKRIDSLYYENQHLRGLLADNMKDVKELSSQLSEASKEMSIQLSSEDDLLRQIAKIKEEYEDLQIEAGVRDGVYQTITRKLLDDSMNSMHDAATNFSTELSSLEAMISEKEKALCLSNEENRMLKEKIAELEQCLIQDKQEDPEVIKQESTEIILRDIEVAPHISPRRSHETPKQDMQYDELVKLNSSLEIASAALKEVENKNIDYNGIFTKNEQEKQLECILISIMKLSKEFVEIEQKLSVER
notes: prey, AD fusion; also called PN26317
B6: OsPN22824 aa 393-494 (other)
chain: ASLVEQDLKERAAREARMGEQLRASEAARETLEAEMRRLRVQTEQWRKAAEAAPPVIGGDAHFVGHNGNGWGSPATMPDDCDDEGFGGKRKGAGIRMLGDLW
notes: prey, AD fusion; also called Novel Protein PN22824, Myosin heavy chain
B7: OsE2F1 aa 191-436 (other)
chain: LQAEVENLSLKEQALDERISDMREKLRGLTEDENNQRWLYVTEDDIKGLPCFQNETLIAIKAPHGTTLEVPDPDEAGDYLQRRYRIVLRSTMGPIDVYLVSQFDEKFEDLGGGATPSGHANVPKHQPTEVFNTTNAGVGQCSNSVAVDNNIQHSQTIPQDPSASHDFGGMTRIIPSDIDTDADYWLISEGDVSITDMWKTAPDVQWDESLDTDVFLSEDVRTPSSHNQQPSAVGGPQMQVSDMHKP
notes: prey, AD fusion; also called PN19758
B8: OsPN29041 aa 5-108 (other)
chain: VQIRRALRALVDDHTDGLMDFEDTEVRSSEETDALEEARLAIEQVVIPKGESVQLLPRPPSIIASQVDLVESFKLKWESIGQEPNACLRILPQFVGVEEGGKSV
notes: prey, AD fusion; also called Novel Protein PN29041, Fragment, Similar to A. thaliana Putative ATPase
B9: OsPN22020 aa 76-170 (other)
chain: ANATDGVKPLVGSARLPLRDVLADTGIGARASRSLRLKRPSGRPHGRLEVRVAVREPKRYYDPSPAYPAPYHQQTNRDPYAYGNTTTGGYGYAYG
notes: prey, AD fusion; also called Novel Protein PN22020, Fragment, Similar to A. thaliana Putative Protein
B10: OsPN22823 aa 25-106 (other)
chain: SSSGKKVPLFSLFRYADRLDVLLMVVGTVGALGNGISQPLMTVLFGNVINSFGANTSGSVLRSVTKVKVSCWTMAGERQSAR
notes: prey, AD fusion; also called Novel Protein PN22823, Similar to ABC Transporter Proteins
B11: Os000564-1102 aa 72-172 (other)
chain: SIEQKEESRGNEDRVTLIKDYRGKIETELTKICDGILKLLESHLVPSSTAPESKVFYLKMKGDYYRYLAEFKTGAERKDAAENTMVAYKAAQDIALAELPP
notes: prey, AD fusion; also called PN20072; Hypothetical protein 000564-1102
B12: OsMADS13 aa 69-230 (other)
chain: RYKKAHACGSTSGAPLIEVNAQQYYQQESAKLRHQIQMLQNTNKHLVGDNVSNLSLKELKQLESRLEKGIAKIRARKNELLASEINYMAKREIELQNDNMDLRTKIAEEEQQLQQVTVARSAAMELQAAAAAQQQQQNPFAVAAAQLDMKCFFPLNLFEAAA
notes: prey, AD fusion; also called PN20668
B13: OsBAB56078 aa 51-155 (other)
chain: PGRFVRKCEKTEQLLRDCVGSDIEALEKGLFGSIGSFLDDAERMTNDFLKSFGVPSINERESSSFDGQPTGRHIGGQPAGRHIEEGTAKDTKQNDYAEFSSKITD
notes: prey, AD fusion; also called PN28517; O. sativa Hypothetical protein BAB56078
B14: OsORF020300-2233.2 aa 93-387 (other)
chain: LLVPYYLGEMTERVAQEDRIPVLKASQDHLKEFISICEALELISEDELELSRQKQPDTMANRRAQKAARFKRQKAAETKLLEIKERKERRRRSLRAAALSAPIEAGEEDAFEDDGEEEREAWLATISLALCKAFDLLDMLKKEEEMLLAVKERQAKDGNAFAREMLDERTKKAEAWHHNAANRAPYSKPADPITCATFAQDVIEGRASVSQAHEHKHQPLIFGPASLVGGGLTSERERMAAQVFQPSYRLPTMSIEEAGLREMKMMEKWQERTAKMIQESNSAWHKDGSRSAQED
notes: prey, AD fusion; also called PN21639; Hypothetical Protein ORF020300-2233.2, Putative PP2A Regulatory Subunit, Similar to OsCAA90866
B15: OsORF020300-2233.2 aa 118-388 (other)
chain: SQDHLKEFISICEALELISEDELELSRQKQPDTMANRRAQKAARFKRQKAAETKLLEIKERKERRRRSLRAAALSAPIEAGEEDAFEDDGEEEREAWLATISLALCKAFDLLDMLKKEEEMLLAVKERQAKDGNAFAREMLDERTKKAEAWHHNAANRAPYSKPADPITCATFAQDVIEGRASVSQAHEHKHQPLIFGPASLVGGGLTSERERMAAQVFQPSYRLPTMSIEEAGLREMKMMEKWQERTAKMIQESNSAWHKDGSRSAQEDE
notes: as for B1
B16: OsAAK63900 aa 122-224 (other)
chain: AAVAGKTHYRSALCASVTICGPIKKKIIDHFHKKPVPPKPEPKPEPPKPKPEPEHPFLDHIHKKEKHFFDHFHKKPVPPKPEPKPEPKPQPAPEYHNPSPPAN
notes: prey, AD fusion; also called PN23266; O. sativa Putative Proline-Rich Protein AAK63900
B17: OsPN23268 aa 12-200 (other)
chain: SEEEAEATLRLLLEEENEARIAAFLVLLRAKGETYEEIVGLAKAMIGCCVRVDGLDDAVDIVGTGGDGADTVNISTGSTILAAAAGAKVAKQGSRASSSACGSADGIKRCVNEVGVGFMMSANYHPAMKIVKPVRKKLKIKTVFNILGPLLNPARVPYAVIGVYHENIVTKMAKAAQKFGMKRALVVHS
notes: prey, AD fusion; also called Novel Protein 23268, Similar to Phosphoribosylanthranilate Transferase, Chloroplast Precursor, Fragment
B18: OsPN26645 aa 24-164 (other)
chain: PLPEACPVPTAAEEILGPGGTCTTLDRRGDPVGVIEGDEVTLAKAITLLHMNKDDYIAVLFYASWCPFSQECKPNFEILASLFPSIRHFAFEESSIRPSIISRYGIHGFPTLFLLNSTMRVRYHGPRTVKSLAAFYRDVSG
notes: prey, AD fusion; also called Novel Protein PN26645, Putative Protein Disulfide Isomerase-Related Protein Precursor
B19: OsMADS5 aa 121-225 (other)
chain: LSLKELEQLENQIEISLMNIRSSKNQQLLDQVFELKRKEQQLQDANKDLKRKIQETSGENMLHISCQDVGPSGHASEANQEFLHHAICDPSLHIGYQAYMDHLNQ
notes: prey, AD fusion; also called PN20770
B20: OsMADS8 aa 74-183 (other)
chain: SYGGPDTAIQNKENELVQSSRNEYLKLKARVENLQRTQRNLLGEDLGTLGIKELEQLEKQLDSSLRHIRSTRTQHMLDQLTDLQRREQMLCEANKCLRRKLEESNQLHGQ
notes: prey, AD fusion; also called PN20778
B21: OsMADS8 aa 109-248 (other)
chain: RTQRNLLGEDLGTLGIKELEQLEKQLDSSLRHIRSTRTQHMLDQLTDLQRREQMLCEANKCLRRKLEESNQLHGQVWEHGATLLGYERQSPHAVQQVPPHGGNGFFHSLEAAAEPTLQIGFTPEQMNNSCVTAFMPTWLP
notes: as for B20

These results are taken from US20060253917A1 (published 2006).

Ends that are not written are not given here.

T6 sequence (A2XN40 whole entry, the tested form may be a part): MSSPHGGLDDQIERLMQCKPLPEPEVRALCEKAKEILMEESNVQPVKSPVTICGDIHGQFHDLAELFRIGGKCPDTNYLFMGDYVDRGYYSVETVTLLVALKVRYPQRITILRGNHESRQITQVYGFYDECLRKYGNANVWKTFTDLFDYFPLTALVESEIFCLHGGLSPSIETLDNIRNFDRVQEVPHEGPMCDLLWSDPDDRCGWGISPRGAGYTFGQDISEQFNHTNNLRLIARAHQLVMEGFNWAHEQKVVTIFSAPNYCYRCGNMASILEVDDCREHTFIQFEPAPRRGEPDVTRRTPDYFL

One assay addresses T1, OsCAA90866 aa 100-250. Description: Y2H; output trait library.
Take B1: the binding result is given as “binds”.
Same read-out and setting: next, B2: “binds”; B3: “binds”; B4: “binds”.

The target in the next assay is T2, Os018989-4003 aa 90-220. Description: Y2H; output trait library. The gist of the method:
(§1)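 A rice prey library, either the input trait or the output trait library, was screened with a bait clone encoding a defined amino-acid fragment of a rice protein. Screening used an automated, high-throughput yeast two-hybrid assay provided by Myriad Genetics Inc. (Salt Lake City, Utah). Retrieved prey clones had their encoding sequences compared by BLAST against databases so the interacting proteins could be identified.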
In the case of B5, the binding result is reported as “binds”.
The same measure, in the same setting: then B6, with “binds”; and B7, with “binds”.

In a further assay the target is T3, OsCHIB1 aa 10-200. Description: Y2H; input trait library. Put shortly: as §1
Consider B8, for which the binding result is “binds”.
The same measure, in the same setting: then AVREPKRYYDPSPAYPAPYHQQTNRDPYAYGNTTTGGYGYAYG (other, not fully specified, prey, AD fusion) [OsPN22020 aa 128-170], with “binds”.
With B9, the binding result was “binds”.
For B10, the binding result is given as “binds”.

The target of another assay is T4, OsMADS5 aa 50-160. Description: Y2H; output trait library. The gist of the method: as §1
As for B11, the binding result is “binds”.
Same read-out and setting: then B12, with “binds”.
With B13, the binding result is listed as “binds”.

The next assay has as its target T6, OsPP2A-2 aa 1-308 (Oryza sativa, UniProt A2XN40 1-307).
T6 construct: bait, Gal4 DBD fusion; also called PN20254; O. sativa Serine/Threonine Protein Phosphatase PP2A-2, Catalytic Subunit
In words: Y2H; input trait library. Put shortly:
as §1
For the molecule B14, the binding result is given as “binds”.
Same read-out and setting: next, B15: “binds”.
Still for that read-out and setting: next, B16: “binds”.
Consider B17, for which the binding result is reported as “binds”.
Still for that read-out and setting: then B18, with “binds”.

A further assay concerns the target T5, OsRAP1B aa 30-180. In words: Y2H; output trait library. Put shortly: as §1
As to B19, the binding result is “binds”.
On to B20, for which the binding result is reported as “binds”.
Consider B21, for which the binding result is “binds”.
